Test results from patent US20180230236A1.

How the values were obtained:
[1] = biological target: canine IgE (canine monoclonal IgE from mouse x dog heterohybridoma cell line 2.39) (canine); assay: affinity estimated from titration to end signal on IgE coated ELISA microtiter plates
[2] = biological target: canine IgE (canine monoclonal IgE from mouse x dog heterohybridoma cell line 2.39) (canine); assay: flow cytometry; displacement of APC-canine IgE from FcεRI on C2 cells by chimera supernatant
[3] = biological target: canine IgE (canine monoclonal IgE from mouse x dog heterohybridoma cell line 2.39) (canine); assay: flow cytometry; C2 cells loaded with APC-canine IgE, then supernatant of chimera-transfected HEK 293 for 60 min at room temperature; displacement of IgE from FcεRI

Chain of canine IgE (canine monoclonal IgE from mouse x dog heterohybridoma cell line 2.39) (canine) (P25054 whole entry): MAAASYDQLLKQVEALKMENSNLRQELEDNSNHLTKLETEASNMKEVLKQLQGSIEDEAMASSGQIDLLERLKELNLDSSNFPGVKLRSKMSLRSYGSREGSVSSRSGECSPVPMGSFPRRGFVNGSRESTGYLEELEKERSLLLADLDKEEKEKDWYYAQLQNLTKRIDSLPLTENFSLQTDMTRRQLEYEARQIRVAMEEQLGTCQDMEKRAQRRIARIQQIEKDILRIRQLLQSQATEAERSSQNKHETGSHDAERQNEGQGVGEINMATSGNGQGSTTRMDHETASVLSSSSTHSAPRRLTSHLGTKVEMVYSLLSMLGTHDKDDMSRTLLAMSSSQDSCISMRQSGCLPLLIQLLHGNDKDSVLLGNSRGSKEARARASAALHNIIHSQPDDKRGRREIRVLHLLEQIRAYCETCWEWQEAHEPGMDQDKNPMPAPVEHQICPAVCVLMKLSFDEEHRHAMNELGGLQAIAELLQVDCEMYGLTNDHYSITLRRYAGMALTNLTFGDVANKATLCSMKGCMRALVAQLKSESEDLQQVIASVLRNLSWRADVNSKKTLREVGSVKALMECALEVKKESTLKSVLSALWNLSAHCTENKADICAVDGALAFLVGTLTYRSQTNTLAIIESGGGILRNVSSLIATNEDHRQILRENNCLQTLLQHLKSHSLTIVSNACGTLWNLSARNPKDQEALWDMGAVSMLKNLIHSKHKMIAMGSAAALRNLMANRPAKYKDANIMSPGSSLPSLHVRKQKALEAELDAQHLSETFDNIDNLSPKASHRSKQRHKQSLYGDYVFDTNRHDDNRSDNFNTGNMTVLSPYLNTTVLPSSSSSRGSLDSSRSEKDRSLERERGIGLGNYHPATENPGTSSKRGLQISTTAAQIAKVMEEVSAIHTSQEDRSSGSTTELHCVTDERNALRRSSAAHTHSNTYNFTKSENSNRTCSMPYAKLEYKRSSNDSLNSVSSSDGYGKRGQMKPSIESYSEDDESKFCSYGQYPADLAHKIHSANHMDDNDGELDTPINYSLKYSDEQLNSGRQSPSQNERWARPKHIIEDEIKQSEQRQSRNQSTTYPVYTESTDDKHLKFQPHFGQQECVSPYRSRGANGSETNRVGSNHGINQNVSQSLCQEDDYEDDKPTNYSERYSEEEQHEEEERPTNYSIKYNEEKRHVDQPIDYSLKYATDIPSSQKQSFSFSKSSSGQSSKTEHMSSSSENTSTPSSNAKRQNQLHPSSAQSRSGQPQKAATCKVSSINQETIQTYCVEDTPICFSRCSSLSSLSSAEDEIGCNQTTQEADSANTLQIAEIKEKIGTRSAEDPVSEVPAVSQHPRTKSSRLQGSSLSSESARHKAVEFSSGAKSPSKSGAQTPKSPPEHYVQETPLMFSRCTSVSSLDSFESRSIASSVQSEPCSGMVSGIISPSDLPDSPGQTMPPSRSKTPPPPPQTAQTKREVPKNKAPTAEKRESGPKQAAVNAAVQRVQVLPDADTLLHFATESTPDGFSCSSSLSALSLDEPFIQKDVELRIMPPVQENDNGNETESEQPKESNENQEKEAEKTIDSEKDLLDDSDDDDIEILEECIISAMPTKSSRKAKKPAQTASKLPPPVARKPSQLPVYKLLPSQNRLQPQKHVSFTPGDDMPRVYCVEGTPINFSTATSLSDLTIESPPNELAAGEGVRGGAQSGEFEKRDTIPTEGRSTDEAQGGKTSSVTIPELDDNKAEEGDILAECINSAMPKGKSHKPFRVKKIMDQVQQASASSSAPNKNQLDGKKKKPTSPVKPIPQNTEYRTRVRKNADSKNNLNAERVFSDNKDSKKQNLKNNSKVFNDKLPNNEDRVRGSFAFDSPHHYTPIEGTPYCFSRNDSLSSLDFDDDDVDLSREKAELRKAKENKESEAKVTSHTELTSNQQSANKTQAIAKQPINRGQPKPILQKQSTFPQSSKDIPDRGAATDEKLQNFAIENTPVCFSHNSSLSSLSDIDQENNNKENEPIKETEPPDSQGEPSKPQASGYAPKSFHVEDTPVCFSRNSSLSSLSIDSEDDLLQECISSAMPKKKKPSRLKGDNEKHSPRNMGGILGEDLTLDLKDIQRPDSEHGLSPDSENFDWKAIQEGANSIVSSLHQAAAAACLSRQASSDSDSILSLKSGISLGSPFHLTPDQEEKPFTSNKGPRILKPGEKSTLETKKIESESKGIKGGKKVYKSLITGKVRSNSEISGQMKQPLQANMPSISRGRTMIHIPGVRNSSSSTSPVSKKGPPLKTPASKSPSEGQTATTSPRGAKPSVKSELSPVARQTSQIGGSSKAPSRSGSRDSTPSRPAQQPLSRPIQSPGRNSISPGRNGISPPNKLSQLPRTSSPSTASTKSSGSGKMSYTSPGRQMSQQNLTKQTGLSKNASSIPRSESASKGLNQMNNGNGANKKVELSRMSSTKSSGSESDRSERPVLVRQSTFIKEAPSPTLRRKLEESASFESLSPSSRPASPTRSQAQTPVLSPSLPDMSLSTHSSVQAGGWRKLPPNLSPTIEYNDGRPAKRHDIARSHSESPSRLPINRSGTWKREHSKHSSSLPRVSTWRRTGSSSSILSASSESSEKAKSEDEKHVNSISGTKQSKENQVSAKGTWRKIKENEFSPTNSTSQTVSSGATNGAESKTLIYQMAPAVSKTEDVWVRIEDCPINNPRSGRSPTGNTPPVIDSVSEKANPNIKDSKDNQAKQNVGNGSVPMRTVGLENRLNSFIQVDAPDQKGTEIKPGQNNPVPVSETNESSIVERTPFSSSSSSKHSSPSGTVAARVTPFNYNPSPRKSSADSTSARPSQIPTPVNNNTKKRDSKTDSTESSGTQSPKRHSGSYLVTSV

affinity [1]: 100 pM
loss of mast cells carrying IgE [2]: > 50%
% cells with label (after chimera supernatant) [3]: 4.11%
B1: chimera of canine FcεRI alpha chain x scFv-5.91 (protein)
chain: DTLKPTVSMNPPWNTILKDDSVTLTCTGNNSLEVDSAVWLHNNTTLQETTSRLDINKAQIQDSGEYRCRENRSILSDPVYLTVFTEWLILQASANVVMEGESFLIRCHSWKNLRLTKVTYYKDGIPIRYWYENFNISISNVTTKNSGNYSCSGQIQQKGYTSKVLNIIVKKEPTKQNKYSGLQGGGGSGGGGSGGGGSEVQLQQSGPELVKPGASMKISCKASGYSITGYTIHWVKQSHGKNLEWIGLINPYTGGITYNQNFKGKATLTVDKSSSTAYMELLSLTSEDSAVYYCSRGPYGNFYAMDYWGQGTSVTVSSGGGGSGGGGSGGGGSDIQMTQSPASLSASVGETVTITCRASGNIHNYLAWYQQKQGKSPQLLVYNAKTLADSVPSRFSGSGSGTQFSLKINSLQPEDFGSYYCQHFWSTPYTFGGGTKLEIKRA
